Measurements from patent US20240400687A1 (Regeneron, published 2024).

T1: mouse PD1 (mPD1) (mouse, UniProt Q02242 25-288)
T1 construct: whole, on cells; also called murine PD1
T1 sequence (looked up): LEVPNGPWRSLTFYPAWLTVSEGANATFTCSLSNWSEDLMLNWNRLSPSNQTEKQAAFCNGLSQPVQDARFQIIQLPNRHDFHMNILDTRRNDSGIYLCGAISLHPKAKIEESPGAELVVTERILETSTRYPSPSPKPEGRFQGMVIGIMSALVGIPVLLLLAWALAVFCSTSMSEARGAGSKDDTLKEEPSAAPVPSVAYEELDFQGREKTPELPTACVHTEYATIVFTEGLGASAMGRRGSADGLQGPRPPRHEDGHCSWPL


Tests used:
[1] = biological target: T1, mouse PD1 (mPD1); test: flow cytometry on Jurkat/mPD1 cells
Experimental: Cells (HEK 293, MC38 over-expressing mCD20, or Jurkat over-expressing mPD1) were resuspended in FACS wash (PBS with 1% FBS) at 1×10⁶ cells/mL. The staining was performed in 1×10⁵ cells per well. The antibodies were diluted with a ratio of 1:5 from a starting concentration of 1.3×10⁻⁰⁷ M. The diluted antibodies were then added into the wells containing cells. Cells were stained for 30 min at 2-8° C. and washed twice with FACS wash buffer. APC-conjugated goat anti-human IgG (Jackson Immuno Research, 109-607-003, 1:400) or AF647-conjugated goat anti-mFc Fab (Jackson Immuno Research, 115-607-185, 1:400) was added to stain the cells for 30 min at 2-8° C. Following washing, cells were fixed in 2% paraformaldehyde for 30 min at 2-8° C. After two washes, stained cells were analyzed using BD LSRFortessa™ FACS instrument. The results were analyzed by FlowJo. FSC/SSC gates were used to select mononuclear cells.

[2] = biological target: T1, mouse PD1 (mPD1); test: cell-based or functional assay

binding result [1]	Max % inhibition, luciferase bioassay, 1 nM CD3 bsAb [2] [%]	Binder
no binding	–	18B12-scFvFc (scFv, V domains shown) VH: QVQLQQPGAELVRPGTSVKLSCKASGYTFTSYWMHWIKQRPGQGLEWIGVIDPSDNYTKYNQKFKGKATLTVDTSSSTAYMQLSSLTSEDSAVYFCAREGYYGSSPWFAYWGQGTLVTVSS VL: QIVMSQSPAILSASPGEKVTMTCRARSSVSYIHWYQQKPGSSPKPWIYATSNLASGVPGRFSGSGSGTSYSLTITRVEAEDAATYYCQQWSSKPPTFGGGTKLEIK
no binding	19	1B12IgG1EN (antibody, IgG, mCD20 x mCD20, 145.3 kDa; also called Molecule ID M) heavy 1: QVQLQQPGAELVRPGTSVKLSCKASGYTFTSYWMHWIKQRPGQGLEWIGVIDPSDNYTKYNQKFKGKATLTVDTSSSTAYMQLSSLTSEDSAVYFCAREGYYGSSPWFAYWGQGTLVTVSSASTKGPSVFPLAPSSKSTSGGTAALGCLVKDYFPEPVTVSWNSGALTSGVHTFPAVLQSSGLYSLSSVVTVPSSSLGTQTYICNVNHKPSNTKVDKKVEPKSCDKTHTCPPCPAPEAEGAPSVFLFPPKPKDTLMISRTPEVTCVVVDVSHEDPEVKFNWYVDGVEVHNAKTKPREEQYNSTYRVVSVLTVLHQDWLNGKEYKCKVSNKALPSSIEKTISKAKGQPREPQVYTLPPCRDELTKNQVSLWCLVKGFYPSDIAVEWESNGQPENNYKTTPPVLDSDGSFFLYSKLTVDKSRWQQGNVFSCSVMHEALHNHYTQKSLSLSPGK heavy 2: QVQLQQPGAELVRPGTSVKLSCKASGYTFTSYWMHWIKQRPGQGLEWIGVIDPSDNYTKYNQKFKGKATLTVDTSSSTAYMQLSSLTSEDSAVYFCAREGYYGSSPWFAYWGQGTLVTVSSASTKGPSVFPLAPSSKSTSGGTAALGCLVKDYFPEPVTVSWNSGALTSGVHTFPAVLQSSGLYSLSSVVTVPSSSLGTQTYICNVNHKPSNTKVDKKVEPKSCDKTHTCPPCPAPEAEGAPSVFLFPPKPKDTLMISRTPEVTCVVVDVSHEDPEVKFNWYVDGVEVHNAKTKPREEQYNSTYRVVSVLTVLHQDWLNGKEYKCKVSNKALPSSIEKTISKAKGQPREPQVCTLPPSRDELTKNQVSLSCAVKGFYPSDIAVEWESNGQPENNYKTTPPVLDSDGSFFLVSKLTVDKSRWQQGNVFSCSVMHEALHNRFTQKSLSLSPGK light: QIVMSQSPAILSASPGEKVTMTCRARSSVSYIHWYQQKPGSSPKPWIYATSNLASGVPGRFSGSGSGTSYSLTITRVEAEDAATYYCQQWSSKPPTFGGGTKLEIKRTVAAPSVFIFPPSDEQLKSGTASVVCLLNNFYPREAKVQWKVDNALQSGNSQESVTEQDSKDSTYSLSSTLTLSKADYEKHKVYACEVTHQGLSSPVTKSFNRGEC
